Source: patent US20120058116A1 (published 2012)

B1: Ex4-ScrH (antibody, mouse IgG2a, kappa)
heavy: not shown
light: DIVMTQSPSSLSASVGDRVTITCKASQNVGTNVAWYQQKPGKAPKALIYSASYRYSGVPDRFSGSGSGTDFTLTISSLQPEDFATYYCQQYNSYPLTFGGGTKVEIKRTDAAPTVSIFPPSSEQLTSGGASVVCFLNNFYPKDINVKWKIDGSERQNGVLNSWTDQDSKDSTYSMSSTLTLTKDEYERHNSYTCEATHKTSTSPIVKSFNRNEC
B2: GLP-1ScrH (antibody, mouse IgG2a, kappa)
heavy: HGEGTFTSDVSSYLEGQAAKEFIAWLVKGRGSGGGGSGGGGSGQVQLVQSGSELKKPGASVKVSCKASGYTFTNYGMNWVRQAPGQGLEWMGWINTRNGKSTYVDDFKGRFVFSLDTSVSTAYLQISSLKADDTAVYYCAREGNMDGYFPFTYWGQGTLVTVSSAKTTAPSVYPLAPVCGDTTGSSVTLGCLVKGYFPEPVTLTWNSGSLSSGVHTFPAVLQSDLYTLSSSVTVTSSTWPSQSITCNVAHPASSTKVDKKIEPRGPTIKPCPPCKCPAPNLAGAPSVFIFPPKIKDVLMISLSPIVTCVVVDVSEDDPDVQISWFVNNVEVHTAQTQTHREDYNSTLRVVSALPIQHQDWMSGKEFKCKVNNKDLPAPIERTISKPKGSVRAPQVYVLPPPEEEMTKKQVTLTCMVTDFMPEDIYVEWTNNGKTELNYKNTEPVLDSDGSYFMYSKLRVEKKNWVERNSYSCSVVHEGLHNHHTTKSFSRTPGK
light: B1 light
B3: Ex4-ScrL (antibody, mouse IgG2a)
heavy: QVQLVQSGSELKKPGASVKVSCKASGYTFTNYGMNWVRQAPGQGLEWMGWINTRNGKSTYVDDFKGRFVFSLDTSVSTAYLQISSLKADDTAVYYCAREGNMDGYFPFTYWGQGTLVTVSSAKTTAPSVYPLAPVCGDTTGSSVTLGCLVKGYFPEPVTLTWNSGSLSSGVHTFPAVLQSDLYTLSSSVTVTSSTWPSQSITCNVAHPASSTKVDKKIEPRGPTIKPCPPCKCPAPNLAGAPSVFIFPPKIKDVLMISLSPIVTCVVVDVSEDDPDVQISWFVNNVEVHTAQTQTHREDYNSTLRVVSALPIQHQDWMSGKEFKCKVNNKDLPAPIERTISKPKGSVRAPQVYVLPPPEEEMTKKQVTLTCMVTDFMPEDIYVEWTNNGKTELNYKNTEPVLDSDGSYFMYSKLRVEKKNWVERNSYSCSVVHEGLHNHHTTKSFSRTPGK
light: not shown
B4: GLP-1ScrL (antibody, mouse IgG2a)
heavy: B3 heavy
light: HGEGTFTSDVSSYLEGQAAKEFIAWLVKGRGSGGGGSGGGGSGDIVMTQSPSSLSASVGDRVTITCKASQNVGTNVAWYQQKPGKAPKALIYSASYRYSGVPDRFSGSGSGTDFTLTISSLQPEDFATYYCQQYNSYPLTFGGGTKVEIKRTVAAPTVSIFPPSSEQLTSGGASVVCFLNNFYPKDINVKWKIDGSERQNGVLNSWTDQDSKDSTYSMSSTLTLTKDEYERHNSYTCEATHKTSTSPIVKSFNRNEC
B5: Ex4-FGFR1cA1L (antibody, mouse IgG2a)
heavy: QVQLVQSGAEVKKPGSSVKVSCKASGQTFTGYYMHWVRQAPGQGLEWMGRIIPILGIAQKFQGRVTITADKSTSTAYMELSSLRSEDTAVYYCARGGDLGGMDVWGQGTLVTVSSAKTTAPSVYPLAPVCGDTTGSSVTLGCLVKGYFPEPVTLTWNSGSLSSGVHTFPAVLQSDLYTLSSSVTVTSSTWPSQSITCNVAHPASSTKVDKKIEPRGPTIKPCPPCKCPAPNLAGAPSVFIFPPKIKDVLMISLSPIVTCVVVDVSEDDPDVQISWFVNNVEVHTAQTQTHREDYNSTLRVVSALPIQHQDWMSGKEFKCKVNNKDLPAPIERTISKPKGSVRAPQVYVLPPPEEEMTKKQVTLTCMVTDFMPEDIYVEWTNNGKTELNYKNTEPVLDSDGSYFMYSKLRVEKKNWVERNSYSCSVVHEGLHNHHTTKSFSRTPGK
light: not shown
B6: GLP1ScrH/L (antibody, mouse IgG2a)
heavy: B2 heavy
light: B4 light
B7: Ex4-FGFR1cA1H (antibody, mouse IgG2a)
heavy: not shown
light: EIVLTQSPLSLPVTPGEPASISCRSSQSLRHSNGYNYLDWYLQKPGQSPQLLIYLASNRASGVPDRFSGSGSGTDFTLKISRVEAEDVGVYYCMQALQIPPTFGPGTKVDIKRTVAAPTVSIFPPSSEQLTSGGASVVCFLNNFYPKDINVKWKIDGSERQNGVLNSWTDQDSKDSTYSMSSTLTLTKDEYERHNSYTCEATHKTSTSPIVKSFNRNEC

These binders were tested against GLP-1 receptor on CHO 6CRE GLP1R cells (assay: cell-based or functional assay).

Binder | Average EC50 (pM), luciferase reporter in CHO 6CRE GLP1R cells [pM]
B1 | 153
B2 | 485
B3 | 117
B4 | 889
B5 | 109
B6 | 475
B7 | 117
